The supplement of paper PMC10567573

B1: WDFY1 (parent)
chain: FWNIKQMWDTKTLGLRQHHCRKCG

Variants of: B1
Assay: protein stability index of a GFP-peptide fusion (GPS, HEK-293T) (PSI 1-6); higher = more stable
Conditions: c terminus: a fixed tail appended
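Note: lentivirally expressed fusions sorted by FACS into six bins by GFP to DsRed ratio, PSI derived from sequencing read proportions per bin multiplied by bin number.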

Protein stability index of substitutions, site by site:
K5: Y 1.36
Q6: A 1.9 | C 2.29 | D 2.42 | E 2.37 | F 2.36 | G 2.55 | H 2.22 | I 2.45 | K 2.13 | L 1.47 | M 2.06 | N 2.22 | P 1.97 | R 2.38 | S 2.01 | T 2.04 | V 2.5 | W 1.79 | Y 1.92
M7: A 1.89 | C 2.06 | D 2.54 | E 2.48 | F 1.77 | G 1.89 | H 2.9 | I 2.15 | K 2.35 | L 2.39 | N 2.46 | P 1.95 | Q 2.92 | R 2.58 | S 2.39 | T 1.69 | V 1.64 | W 1.96 | Y 2.45
W8: A 2.57 | C 2.54 | D 3.27 | E 2.44 | F 1.67 | G 2.81 | H 2.24 | I 1.75 | K 2.18 | L 1.76 | M 2.78 | N 2.25 | P 2.73 | Q 2.59 | R 1.42 | S 3.12 | T 2.52 | V 2.15 | Y 2.6
D9: A 1.98 | C 1.53 | E 1.95 | F 1.7 | G 1.73 | H 2.05 | I 1.94 | K 1.33 | L 1.6 | M 1.25 | N 1.77 | Q 1.5 | R 2.24 | S 2.02 | T 1.47 | V 3.82 | W 1.75 | Y 1.89
T10: A 1.48 | C 2.11 | D 2.56 | E 2.39 | F 2.52 | G 1.89 | H 2.13 | I 2.31 | K 3.11 | L 2.23 | M 2.16 | N 2.04 | P 2.28 | Q 1.91 | R 2.06 | S 2.18 | V 2.04 | W 2.48 | Y 1.41
K11: A 2.14 | C 1.87 | D 2.37 | E 3.03 | F 1.92 | G 2.08 | H 1.8 | I 1.42 | L 1.54 | M 1.94 | N 2.27 | P 2.2 | Q 1.77 | R 1.27 | S 2.57 | T 2.21 | V 1.97 | W 2.44 | Y 1.77
T12: A 2.29 | C 3.57 | D 1.91 | E 1.72 | F 2.11 | G 1.77 | H 1.86 | I 1.63 | K 2 | L 1.36 | M 2.6 | N 1.84 | P 1.98 | Q 2.39 | R 2.73 | S 2.14 | V 2.33 | W 1.79 | Y 2.72
L13: A 2.01 | C 2.57 | D 1.7 | E 2.56 | F 2.2 | G 2.01 | H 2.22 | I 2.26 | K 2.08 | M 2 | N 1.96 | P 2.22 | Q 2.02 | R 2.29 | S 2.37 | T 1.95 | V 2.15 | W 2.01 | Y 2.67
G14: A 2.1 | C 2.27 | D 2.69 | E 2.44 | F 2.78 | H 1.85 | I 1.87 | K 1.79 | L 2.54 | M 1.75 | N 2.08 | P 2.11 | Q 2.54 | R 3.17 | S 1.97
